Read-outs that look alike come from different tables or passages of the source.
Assays:
[1] = molecular target: T1, recombinant biotinylated human FcRn (human, UniProt P55899 24-297; P61769 21-119, limits assumed, biotinylated); assay: AlphaLISA competition at pH 6; competitor human IgG acceptor beads
T1 construct: Kit reagent; also called human neonatal Fc receptor
Method: (§1) The interaction of the unmodified and of conjugated anti-PD1 antibodies with the human neonatal Fc receptor (FcRn) at pH 6 was measured using the AlphaLISA® Human FcRn Binding Kit (AL3095C) from Perkin Elmer (Schwerzenbach, Switzerland).
(§2) After 90 min at 23° C. in the dark, AlphaLISA® signal was measured on an EnSpire plate reader (Excitation at 680 nm, Emission at 615 nm) from Perkin Elmer (Schwerzenbach, Switzerland).

[2] = molecular target: T1, recombinant biotinylated human FcRn; assay: AlphaLISA competition at pH 6: test antibody titrated against human IgG acceptor beads for biotinylated human FcRn on streptavidin donor beads; loss of signal
Method: as §1, §2

[3] = molecular target: human PD-1 on Jurkat T cells (human, UniProt Q15116 25-288); assay: cell-based or functional assay
[4] = molecular target: T1, recombinant biotinylated human FcRn; assay: AlphaLISA competition at pH 6: test antibody titrated against human IgG acceptor beads for biotinylated human FcRn on streptavidin donor beads; normalized signal
[5] = molecular target: T2, Biotinylated Recombinant Human PD-1/CD279-Fc Chimera (human, UniProt Q15116 25-167, biotinylated); assay: ELISA: antibody coated on the plate (5 µg/ml), biotinylated human PD-1-Fc titrated (x-axis, Concentration (nM)), streptavidin-HRP/TMB, 450 nm
T2 construct: Bought (Biolegend #789406); also called recombinant biotinylated human PD-1

[6] = molecular target: T3, recombinant Human Fc gamma RI/CD64 Protein (human, UniProt P12314 16-288); assay: ELISA: antibody coated (2.5 µg/ml), His-tagged recombinant human FcγRI/CD64 titrated (x-axis), anti-His-HRP/TMB, 450 nm
T3 construct: also called FcγRI/(CD64); human Fc gamma receptor I
Method: (§3) The interaction of the unmodified and of conjugated antibodies with human Fc gamma receptors I (FcγRI/CD64), with human Fc gamma receptors IIa (FcγRIIa/CD32a), with inhibitory human Fc gamma receptors IIb (FcγRIIb/CD32b), and with human Fc gamma receptors III FcγRIIIa/CD16 were measured by ELISA.
Briefly, Corning high-binding half-area plates (Fisher Scientific, Reinach, Switzerland) were coated overnight at 4° C. with 25 ul of unmodified and of conjugated anti-PD1 antibodies at 2.5 μg/ml in PBS. Plates were then washed four times with 100 ul of PBS-0.02% Tween20. Plates surfaces were blocked with 25 ul of PBS-0.02% Tween20-1% BSA at 37° C. during 1h. Plates were then washed four times with 100 ul of PBS-0.02% Tween20. Then twenty-five microliters of either recombinant Human Fc gamma RI/CD64 Protein (R&D systems, 1257-FC-050, CF), recombinant Human Fc gamma RIIA/CD32a (H167) Protein (R&D systems, 9595-CD-050, CF), recombinant Human Fc gamma RIIB/CD32b Avi-tag Protein (R&D systems, AVI1875-050, CF), or recombinant Human Fc gamma RIIIA/CD16a Protein (R&D systems, 4325-FC-050; CF) were added in five-fold serial dilutions ranging from 1000 nM to 0.001 nM into PBS-0.02% Tween20-0.1% BSA and incubated at 37° C. during 2h. […] ELISA signal was then measured at 450 nm on an EnSpire plate reader from Perkin Elmer (Schwerzenbach, Switzerland).

[7] = molecular target: T1, recombinant biotinylated human FcRn; assay: AlphaLISA competition at pH 6; competitor human IgG acceptor beads; remark: listed apart in the source
Method: as §1, §2

[8] = molecular target: T4, recombinant Human Fc gamma RIIA/CD32a (H167) Protein (human, UniProt P12318 36-218, limits assumed); assay: ELISA; antibody coated, His-tagged receptor titrated
T4 construct: also called FcγRIIa (CD32a)
T4 sequence (looked up): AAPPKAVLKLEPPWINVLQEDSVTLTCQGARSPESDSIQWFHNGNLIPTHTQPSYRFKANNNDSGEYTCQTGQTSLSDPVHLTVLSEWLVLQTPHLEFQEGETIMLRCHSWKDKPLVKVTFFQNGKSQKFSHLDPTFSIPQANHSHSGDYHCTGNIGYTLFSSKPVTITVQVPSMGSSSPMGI
Method: as §3
(§4) Briefly, Corning high-binding half-area plates (Fisher Scientific, Reinach, Switzerland) were coated overnight at 4° C. with 25 ul of unmodified and of conjugated anti-PD1 antibodies at 2.5 μg/ml in PBS. Plates were then washed four times with 100 ul of PBS-0.02% Tween20. Plates surfaces were blocked with 25 ul of PBS-0.02% Tween20-1% BSA at 37° C. during 1h. Plates were then washed four times with 100 ul of PBS-0.02% Tween20. Then twenty-five microliters of either recombinant Human Fc gamma RI/CD64 Protein (R&D systems, 1257-FC-050, CF), recombinant Human Fc gamma RIIA/CD32a (H167) Protein (R&D systems, 9595-CD-050, CF), recombinant Human Fc gamma RIIB/CD32b Avi-tag Protein (R&D systems, AVI1875-050, CF), or recombinant Human Fc gamma RIIIA/CD16a Protein (R&D systems, 4325-FC-050; CF) were added in five-fold serial dilutions ranging from 1000 nM to 0.001 nM into PBS-0.02% Tween20-0.1% BSA and incubated at 37° C. during 2h. Plates were then washed four times with 100 ul of PBS-0.02% Tween20. Twenty-five microliters of a 1/500 HRP-anti-His antibody in PBS-0.02% Tween20-0.1% BSA (R&D systems, anti-HIS-HRP Ab, #MAB050H) were added to each well and plates were incubated at Room Temperature during 1h. Plates were then washed four times with 100 ul of PBS-0.02% Tween20. Fifty microliters of TMB substrate reagent (#CL07, Merck, Buchs, Switzerland) were added to each well and incubated at 37° C. during 5 min. After 5 min at 37° C., Horseradish peroxidase reaction was stopped by adding 50 ul/well of 0.5M H2SO₄ stop solution. ELISA signal was then measured at 450 nm on an EnSpire plate reader from Perkin Elmer (Schwerzenbach, Switzerland).

[9] = molecular target: T5, recombinant Human Fc gamma RIIIA/CD16a Protein (human, UniProt P08637 17-208, limits assumed); assay: as above
T5 construct: also called FcγRIIIa (CD16)
Method: as §3, §4

[10] = molecular target: T6, recombinant Human Fc gamma RIIB/CD32b Avi-tag Protein (human, UniProt P31994 46-217); assay: as above
T6 construct: also called FcγRIIb (CD32b)
T6 sequence (looked up): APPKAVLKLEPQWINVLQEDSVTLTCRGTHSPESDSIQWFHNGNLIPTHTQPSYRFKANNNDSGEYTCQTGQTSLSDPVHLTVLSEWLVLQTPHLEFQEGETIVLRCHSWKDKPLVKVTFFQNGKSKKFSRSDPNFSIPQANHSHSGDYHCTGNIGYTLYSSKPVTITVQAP
Method: as §3, §4

[11] = molecular target: T3, recombinant Human Fc gamma RI/CD64 …; assay: as above
Method: as §3, §4

Kd [1]: 6 nM
IC50 (read off the curve) [2]: ~5 nM
EC50 (read off the curve) [3]: ~2 nM
IC50 (read off the curve) [4]: ~5 nM
EC50 (read off the curve) [5]: ~0.03 nM
EC50 (read off the curve) [6]: ~0.2 nM
Kd [7]: 6 nM
Kd [8]: 1350 nM
Kd [9]: 1710 nM
Kd [10]: 2630 nM
Kd [11]: 0.315 nM
B1: LZM-009 (antibody, human IgG4 S228P, kappa)
heavy: not shown
light: EIVLTQSPATLSLSPGERATISCRASKGVSTSGYSYLHWYQQKPGQAPRLLIYLASYLESGVPARFSGSGSGTDFTLTISSLEPEDFATYYCQHSRELPLTFGTGTKVEIKRTVAAPSVFIFPPSDEQLKSGTASVVCLLNNFYPREAKVQWKVDNALQSGNSQESVTEQDSKDSTYSLSSTLTLSKADYEKHKVYACEVTHQGLSSPVTKSFNRGEC
notes: IgG4 anti-PD-1 antibody; also called CMP2000
